± gives the standard deviation of the averaged measurements.
Tested on: Saccharomyces cerevisiae
Assay: protein stability index of tFT-peptide fusion (C-terminal peptide) (PSI (0-1 scale)); higher = more stable (slower turnover)
Conditions: temperature: 30 C
Procedure: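 MPS profiling in S. cerevisiae of the yeast C-terminome library: the last 12 aa of each annotated ORF are fused to the C-terminus of a sfGFP-mCherry timer, after a GGGS linker. Cells are FACS-sorted into 8 mCherry/sfGFP bins and deep-sequenced. PSI runs from 0 (unstable) to 1 (stable); wild type and das1Δ backgrounds, two technical replicates each.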

[1] = genetic background: das1 deletion

Row | Sequence | protein stability index [1] | protein stability index (genetic background: wild type)
1 | QAKEVFDKMQKE [FMP23 C-terminal 12 aa] | 0.7133 ± 0.0026 | 0.686 ± 0.065
2 | KKNDTPKPKPLK [SFC1 C-terminal 12 aa] | 0.7063 ± 0.00074 | 0.678 ± 0.01
3 | GEEKKHLKMASP [MDE1 C-terminal 12 aa] | 0.6905 ± 0.0062 | 0.704 ± 0.035
4 | VSNLEVLEELFP [DPI35 C-terminal 12 aa] | 0.722 ± 0.015 | 0.7123 ± 0.0038
5 | NNNNNNNDDDDK [CTK1 C-terminal 12 aa] | 0.694 ± 0.021 | 0.691 ± 0.028
6 | AMMKAEENFVKS [MAG1 C-terminal 12 aa] | 0.655 ± 0.029 | 0.6762 ± 0.00091
7 | NQAIQYANEFQQ [HOG1 C-terminal 12 aa] | 0.701 ± 0.022 | 0.715 ± 0.043
8 | VEKKKVLSKITL [VPH2 C-terminal 12 aa] | 0.691 ± 0.033 | 0.691 ± 0.048
9 | IEAATQAFLDSQ [WIP1 C-terminal 12 aa] | 0.698 ± 0.013 | 0.715 ± 0.051
10 | HHLTYLPSVPSL [MMO1 C-terminal 12 aa] | 0.715 ± 0.025 | 0.71 ± 0.053
11 | KSEEAKKRTSLY [YBR124W C-terminal 12 aa] | 0.694 ± 0.013 | 0.679 ± 0.023
12 | ASNGSIFQFSSP [REC104 C-terminal 12 aa] | 0.692 ± 0.023 | 0.718 ± 0.01
13 | SKRVYSICHYEF [ABM1 C-terminal 12 aa] | 0.693 ± 0.018 | 0.695 ± 0.012
14 | DATLYLGRFLPH [PEF1 C-terminal 12 aa] | 0.70773 ± 2.5e-05 | 0.667 ± 0.01
15 | LLTAMSAQISFD [AAD16 C-terminal 12 aa] | 0.735 ± 0.00072 | 0.72 ± 0.012
16 | NQRKANDNKRRR [RRP17 C-terminal 12 aa] | 0.7188 ± 0.001 | 0.77 ± 0.058
17 | LEPQESKPTIDH [AIM34 C-terminal 12 aa] | 0.697 ± 0.018 | 0.6899 ± 0.005
18 | HKELLAKLEGSD [HNT1 C-terminal 12 aa] | 0.688 ± 0.0052 | 0.703 ± 0.025
19 | EEFINKLVKAMN [RPL7B C-terminal 12 aa] | 0.649 ± 0.012 | 0.6163 ± 0.0019
20 | LTMLPPMAPLLS [YMR158W-B C-terminal 12 aa] | 0.684 ± 0.021 | 0.653 ± 0.018
21 | DRCKEAVDHLMS [ISM1 C-terminal 12 aa] | 0.686 ± 0.011 | 0.70544 ± 0.00054

Row | Sequence | protein stability index [1] | protein stability index (genetic background: wild type)
22 | FGRKLKKIFGRK [SEG2 C-terminal 12 aa] | 0.675 ± 0.035 | 0.6421 ± 0.0063
23 | LNEPKDSAENKI [SRC1 C-terminal 12 aa] | 0.6958 ± 0.0062 | 0.659 ± 0.026
24 | KMLDALKNERKK [HTL1 C-terminal 12 aa] | 0.716 ± 0.015 | 0.673 ± 0.038
25 | MSSFLSKKENNN [SNT1 C-terminal 12 aa] | 0.722 ± 0.024 | 0.6618 ± 0.005
26 | HYEAVRANFEGA [PEX6 C-terminal 12 aa] | 0.7023 ± 0.0047 | 0.724 ± 0.012
27 | GGFDDGFDGSDF [WWM1 C-terminal 12 aa] | 0.719 ± 0.012 | 0.728 ± 0.0098
28 | QRDFLLFYNAIM [CDC36 C-terminal 12 aa] | 0.687 ± 0.012 | 0.533 ± 0.075
29 | EQITSSLQEASE [FSH1 C-terminal 12 aa] | 0.67 ± 0.016 | 0.656 ± 0.0082
30 | LSTFFLFHNPCN [YGL239C C-terminal 12 aa] | 0.762 ± 0.022 | 0.706 ± 0.079
31 | GVYMELVKVLFG [YLR177W C-terminal 12 aa] | 0.607 ± 0.015 | 0.631 ± 0.013
32 | LSDASYDTYELV [SPG5 C-terminal 12 aa] | 0.703 ± 0.011 | 0.743 ± 0.01
33 | PMALFGIFAVAL [AFB1 C-terminal 12 aa] | 0.5769 ± 0.0038 | 0.596 ± 0.0014
34 | TVGIHSPIDEKC [ATG4 C-terminal 12 aa] | 0.699 ± 0.013 | 0.669 ± 0.015
35 | YWRKQYPDADIP [YCR007C C-terminal 12 aa] | 0.71925 ± 0.00051 | 0.747 ± 0.025
36 | TFTLAVTPYPAF [YLL066W-B C-terminal 12 aa] | 0.715 ± 0.013 | 0.6847 ± 0.0036
37 | STKFLRSFGQTI [SWP1 C-terminal 12 aa] | 0.70697 ± 0.0003 | 0.686 ± 0.012
38 | DFFYFFQGPFVL [YOR072W-B C-terminal 12 aa] | 0.721 ± 0.013 | 0.731 ± 0.044
39 | NWVRYSSIYYQL [YDR194W-A C-terminal 12 aa] | 0.695 ± 0.013 | 0.14 ± 0.011
40 | RSPKKKKNYHKR [NUR1 C-terminal 12 aa] | 0.74 ± 0.061 | 0.6729 ± 0.006
41 | RYIYAYINAQVQ [YHL005C C-terminal 12 aa] | 0.502 ± 0.03 | 0.452 ± 0.0055
42 | DDTVQFMRRALE [EAF5 C-terminal 12 aa] | 0.665 ± 0.045 | 0.719 ± 0.044

Row | Sequence | protein stability index [1] | protein stability index (genetic background: wild type)
43 | QMTRNVNNNDFS [YAH1 C-terminal 12 aa] | 0.711 ± 0.028 | 0.664 ± 0.014
44 | KVLACYEEIDDY [UBC11 C-terminal 12 aa] | 0.679 ± 0.0098 | 0.712 ± 0.059
45 | AIWKHGIVEEKI [TMA19 C-terminal 12 aa] | 0.695 ± 0.014 | 0.694 ± 0.026
46 | AFTTYRAFVEPN [PMI40 C-terminal 12 aa] | 0.72 ± 0.044 | 0.677 ± 0.0095
47 | DNNTVTANPTAR [YJR012C C-terminal 12 aa] | 0.7033 ± 0.0028 | 0.6523 ± 0.003
48 | FVLKTLNMNVTN [OST1 C-terminal 12 aa] | 0.681 ± 0.0095 | 0.668 ± 0.0024
49 | LVLKQRQEQEKQ [GDI1 C-terminal 12 aa] | 0.688 ± 0.025 | 0.717 ± 0.06
50 | SVYQPFFALCGL [YDR355C C-terminal 12 aa] | 0.6756 ± 0.0066 | 0.645 ± 0.017
51 | LCGAPNCKGFLN [SET1 C-terminal 12 aa] | 0.677 ± 0.026 | 0.671 ± 0.036
52 | RRIIESINKSQG [HAT1 C-terminal 12 aa] | 0.659 ± 0.012 | 0.6752 ± 0.0052
53 | TNQPVNENNDLK [SNF3 C-terminal 12 aa] | 0.667 ± 0.013 | 0.629 ± 0.0078
54 | KPLLTSIFPNHK [YBL012C C-terminal 12 aa] | 0.718 ± 0.064 | 0.667 ± 0.0098
55 | AKLFKEIFAYKV [COQ8 C-terminal 12 aa] | 0.664 ± 0.0097 | 0.66 ± 0.019
56 | LTQVEKPRGIFD [DDC1 C-terminal 12 aa] | 0.71 ± 0.023 | 0.674 ± 0.013
57 | CAVDAIFYWLLM [GMC1 C-terminal 12 aa] | 0.652 ± 0.026 | 0.486 ± 0.026
58 | TKMFPAHSHVLW [THP1 C-terminal 12 aa] | 0.716 ± 0.032 | 0.72 ± 0.014
59 | NVGVIRPLLDLQ [YGR069W C-terminal 12 aa] | 0.743 ± 0.026 | 0.729 ± 0.015
60 | RLGASNSSNNDA [SLY1 C-terminal 12 aa] | 0.702 ± 0.022 | 0.68 ± 0.018
61 | AQLVSLVRNQKH [YLR198C C-terminal 12 aa] | 0.717 ± 0.022 | 0.6998 ± 0.005
62 | EEWSSKFGSNGS [YTA6 C-terminal 12 aa] | 0.7431 ± 0.0031 | 0.725 ± 0.014
63 | AIGNCVQDEEKL [AVL9 C-terminal 12 aa] | 0.717 ± 0.0097 | 0.679 ± 0.035

Row | Sequence | protein stability index [1] | protein stability index (genetic background: wild type)
64 | EEHHFYREHIFT [OCA4 C-terminal 12 aa] | 0.7231 ± 0.0018 | 0.7118 ± 0.0058
65 | SDDDDYDEVANQ [UBC8 C-terminal 12 aa] | 0.689 ± 0.031 | 0.664 ± 0.015
66 | YANAPIEEKPLI [PUN1 C-terminal 12 aa] | 0.702 ± 0.018 | 0.683 ± 0.017
67 | RCNVYIIRCIHH [YOL164W-A C-terminal 12 aa] | 0.5183 ± 0.00055 | 0.51 ± 0.037
68 | YFSSNISMKTEN [REB1 C-terminal 12 aa] | 0.7171 ± 0.0057 | 0.7373 ± 0.0014
69 | ELFTIISRIIED [TSL1 C-terminal 12 aa] | 0.702 ± 0.016 | 0.711 ± 0.046
70 | GNSDGSVEVTEK [RKI1 C-terminal 12 aa] | 0.6897 ± 0.0053 | 0.705 ± 0.03
71 | DTDGMQDQSSNI [IVY1 C-terminal 12 aa] | 0.693 ± 0.019 | 0.679 ± 0.019
72 | RLRKWLSTFVHQ [YNL034W C-terminal 12 aa] | 0.756 ± 0.045 | 0.182 ± 0.017
73 | EAQTSRAKNELS [PHD1 C-terminal 12 aa] | 0.6855 ± 0.004 | 0.575 ± 0.011
74 | IATIENKFDFEI [YCR099C C-terminal 12 aa] | 0.712 ± 0.013 | 0.694 ± 0.042
75 | SIIDKELENIDS [SGD1 C-terminal 12 aa] | 0.731 ± 0.027 | 0.681 ± 0.018
76 | LSVHPLKPCDPN [INP52 C-terminal 12 aa] | 0.684 ± 0.0054 | 0.661 ± 0.042
77 | KPLYYRIYRFFC [MMP1 C-terminal 12 aa] | 0.764 ± 0.013 | 0.537 ± 0.0091
78 | LARLKTCVLLIN [YML122C C-terminal 12 aa] | 0.544 ± 0.017 | 0.154 ± 0.0076
79 | YKAVSVSANSPE [SOG2 C-terminal 12 aa] | 0.689 ± 0.016 | 0.673 ± 0.032
80 | IAEIASAVDKYS [MHT1 C-terminal 12 aa] | 0.7183 ± 0.0018 | 0.726 ± 0.047
81 | TSLGLTRTTIIP [CDC4 C-terminal 12 aa] | 0.685 ± 0.021 | 0.6778 ± 0.0043
82 | IQFFSQCTSCTV [YLR286W-A C-terminal 12 aa] | 0.507 ± 0.0085 | 0.5256 ± 0.004

From the supplement of paper PMC10724198
